Results published in article PMC4238058.

Assays:
[1] = target: triply phosphorylated TIR3Y (His8-tagged human Nephrin tail with its pTyr sites replaced by the pTyr motif of EPEC Tir) (EPEC | human)
[2] = target: triply phosphorylated His8-tagged Nephrin cytoplasmic tail (amino acids 1174-1223, Y1183F, Y1210F; pTyr1176, pTyr1193, pTyr1217) (human)
[3] = target: (SH3)3: three repeats of the second Nck SH3 domain, plus the Nck SH2 domain (human)

Row | Substance | clustering concentration of (SH3)3 (SH3 module concentration) on bilayers with p-TIR at 2000 molecules/um^2 and 500 nM N-WASP [1] [nM] | clustering concentration of (SH3)3 (SH3 module concentration) on bilayers with p-Nephrin and 500 nM N-WASP [2] [nM] | equilibrium fractional intensity of p-Nephrin clusters (1 uM (SH3)3, 500 nM N-WASP) against peptide concentration, 100 nM to 100 uM; the pair that is blocked: (SH3)3 with p-Nephrin [3] [µM]
1 | (SH3)3: three repeats of the second Nck SH3 domain, plus the Nck SH2 domain (designed binder) | 100 | 200 | –
2 | TIR-1pY: N-terminal rhodamine labeled single pTyr motif from EPEC Tir protein (peptide) | – | – | > 10
